B1: Ltp2 (17-hydroxy-3-oxo-4-pregnene-20-carboxyl-CoA retro-aldolase; chain gamma of the ChsH1-ChsH2-Ltp2 complex) (enzyme)
chain: MLSGQAAIVGIGATDFSKNSGRSELRLAAEAVLDALADAGLSPTDVDGLTTFTMDTNTEIAVARAAGIGELTFFSKIHYGGGAACATVQHAAMAVATGVADVVVAYRAFNERSGMRFGQVQTRLTENADSTGVDNSFSYPHGLSTPAAQVAMIARRYMHLSGATSRDFGAVSVADRKHAANNPKAYFYGKPITIEDHQNSRWIAEPLRLLDCCQETDGAVAIVVTSAARARDLKQRPVVIEAAAQGCSPDQYTMVSYYRPELDGLPEMGLVGRQLWAQSGLTPADVQTAVLYDHFTPFTLIQLEELGFCGKGEAKDFIADGAIEVGGRLPINTHGGQLGEAYIHGMNGIAEGVRQLRGTSVNPVAGVEHVLVTAGTGVPTSGLILG

How the values were obtained:
[1] = target: B1; experiment: SAXS
negative-stain EM = target: the molecule itself; experiment: negative-stain EM

| Binder | binding result [1] | binding result (negative-stain EM) |
| --- | --- | --- |
| ChsH2 (chain beta of the ChsH1-ChsH2-Ltp2 complex) (enzyme) MTGVSDIQEAVAQIKAAGPSKPRLARDPVNQPMINNWVEAIGDRNPIYVDDAAARAAGHPGIVAPPAMIQVWTMMGLGGVRPKDDPLGPIIKLFDDAGYIGVVATNCEQTYHRYLLPGEQVSISAELGDVVGPKQTALGEGWFINQHIVWQVGDEDVAEMNWRILKFKPAGSPSSVPDDLDPDAMMRPSSSRDTAFFWDGVKAHELRIQRLADGSLRHPPVPAVWQDKSVPINYVVSSGRGTVFSFVVHHAPKVPGRTVPFVIALVELEEGVRMLGELRGADPARVAIGMPVRATYIDFPDWSLYAWEPDE | binds |  |
| B1 |  | binds |

Source: paper PMC6946549 (Biochemistry, 2019)
